Changes are numbered by the printed parent chain. Each block holds one binder with its values, some of them ahead of it.
How the values were obtained:
Details in all cases: both partners purified
Atg12~Atg5 conjugate [1] = target: T1, Atg12~Atg5 conjugate (S. cerevisiae, UniProt P38316 1-186; Q12380 1-294, conjugated to Atg5 (Atg12~Atg5 protein conjugate) | conjugated to Atg12); experiment: SEC; separately purified proteins mixed in a molar ratio 1:1 for 30 min at 4°C or on ice; the resulting complex purified on Superdex S200 16/60
T1 construct: Atg12, S. cerevisiae; Atg5, S. cerevisiae; the two chains are covalently joined; source: E. coli Rosetta pLysS, co-expression of 6xHis-Atg5, Atg12, Atg7 and Atg10, purified
T1 sequence (looked up) 1: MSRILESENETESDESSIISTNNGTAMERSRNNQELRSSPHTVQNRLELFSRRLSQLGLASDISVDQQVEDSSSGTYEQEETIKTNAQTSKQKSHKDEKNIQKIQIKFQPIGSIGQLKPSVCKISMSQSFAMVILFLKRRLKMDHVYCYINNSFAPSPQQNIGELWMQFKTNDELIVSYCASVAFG
T1 sequence (looked up) 2: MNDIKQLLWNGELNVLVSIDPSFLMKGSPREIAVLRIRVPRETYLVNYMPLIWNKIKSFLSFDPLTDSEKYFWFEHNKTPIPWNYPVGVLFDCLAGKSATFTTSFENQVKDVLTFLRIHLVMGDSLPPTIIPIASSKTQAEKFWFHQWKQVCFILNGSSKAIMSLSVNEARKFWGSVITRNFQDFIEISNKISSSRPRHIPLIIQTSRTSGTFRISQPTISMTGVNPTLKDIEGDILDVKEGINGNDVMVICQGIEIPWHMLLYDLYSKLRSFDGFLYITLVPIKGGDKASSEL

[2] = target: T2, Atg12~Atg5 (N84E) conjugate (S. cerevisiae, UniProt P38316 1-186; Q12380 1-294, N84E, conjugated to Atg5 | conjugated to Atg12); experiment: as above
T2 construct: Atg12, S. cerevisiae; Atg5, S. cerevisiae; source: E. coli Rosetta pLysS, purified
T2 sequence (looked up) 1: T1 sequence (looked up) 1
T2 sequence (looked up) 2: T1 sequence (looked up) 2 with N84E

[3] = target: T3, Atg12~Atg5 (K57E,N84E) conjugate (S. cerevisiae, UniProt P38316 1-186; Q12380 1-294, K57E | N84E, conjugated to Atg5 | conjugated to Atg12); experiment: as above
T3 construct: Atg12, S. cerevisiae; Atg5, S. cerevisiae; source: E. coli Rosetta pLysS, purified
T3 sequence (looked up) 1: T1 sequence (looked up) 1
T3 sequence (looked up) 2: T1 sequence (looked up) 2 with K57E, N84E

[4] = target: T4, Atg12~Atg5 (K57E) conjugate (S. cerevisiae, UniProt P38316 1-186; Q12380 1-294, K57E, conjugated to Atg5 | conjugated to Atg12); experiment: as above
T4 construct: Atg12, S. cerevisiae; Atg5, S. cerevisiae; source: E. coli Rosetta pLysS, purified
T4 sequence (looked up) 1: T1 sequence (looked up) 1
T4 sequence (looked up) 2: T1 sequence (looked up) 2 with K57E

mCherry-Atg19 = target: T5, mCherry-Atg19 (S. cerevisiae, UniProt P35193 1-415); experiment: microscopy-based protein-protein interaction assay on beads; beads with GST-prApe1(1–45) at 5 µM, washed, Atg19 (wild type, mutant or mCherry-Atg19) 5 µM, washed, Atg12~Atg5-Atg16-meGFP 5 µM (Figure 3—figure supplement 2, Figure 6—figure supplement 1)
T5 construct: Atg19, S. cerevisiae; also called 6xHis-mCherry-Atg19; source: E. coli Rosetta pLysS, purified via a hexahistidine tag; not shown: mCherry, N-terminal, kept
T5 sequence (looked up): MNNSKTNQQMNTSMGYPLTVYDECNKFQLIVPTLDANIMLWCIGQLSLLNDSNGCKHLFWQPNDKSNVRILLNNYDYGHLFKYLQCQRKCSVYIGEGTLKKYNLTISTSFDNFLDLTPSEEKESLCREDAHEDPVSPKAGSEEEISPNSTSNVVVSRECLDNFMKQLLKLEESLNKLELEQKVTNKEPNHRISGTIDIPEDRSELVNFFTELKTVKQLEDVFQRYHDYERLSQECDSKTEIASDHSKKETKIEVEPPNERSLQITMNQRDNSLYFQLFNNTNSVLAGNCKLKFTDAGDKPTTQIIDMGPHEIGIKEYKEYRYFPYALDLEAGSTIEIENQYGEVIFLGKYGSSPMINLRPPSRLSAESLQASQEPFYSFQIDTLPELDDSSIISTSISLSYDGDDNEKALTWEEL

Atg19 = target: T6, Atg19 (S. cerevisiae, UniProt P35193 1-415); experiment: microscopy-based recruitment to cargo mimetic beads; beads with GST-prApe1(1–45) 25 µM, Atg19 15 µM, Atg12~Atg5-Atg16-mCherry 12.5 µM, washed after each step, with ATTO390-containing SUVs (Figure 6, Figure 6—figure supplement 2)
T6 construct: Atg19, S. cerevisiae; printed without a tag; also called Atg19 wild type
T6 sequence (looked up): T5 sequence (looked up)

[5] = target: T7, Atg12~Atg5-Atg16-mCherry complex (S. cerevisiae, UniProt P38316 1-186; Q12380 1-294; Q03818 1-150, conjugated to Atg5 (Atg12~Atg5 protein conjugate) | conjugated to Atg12); experiment: microscopy-based protein-protein interaction assay on beads; glutathione beads coated with GST baits at 20 µM, Atg12~Atg5-Atg16-mCherry 5 µM, 25 mM HEPES pH 7.5, 150 mM NaCl, 1 mM DTT, imaged at equilibrium by spinning disc microscopy (Figures 1B, 2F, 2G)
T7 construct: Atg12, S. cerevisiae; Atg5, S. cerevisiae; Atg16, S. cerevisiae; also called Cx; source: E. coli Rosetta pLysS; Atg12~Atg5 conjugate mixed 1:1 with purified Atg16-mCherry, purified by size exclusion chromatography; not shown: His6, N-terminal, cleaved; mCherry, C-terminal, kept; copies: + +
T7 sequence (looked up) 1: T1 sequence (looked up) 1
T7 sequence (looked up) 2: T1 sequence (looked up) 2
T7 sequence (looked up) 3: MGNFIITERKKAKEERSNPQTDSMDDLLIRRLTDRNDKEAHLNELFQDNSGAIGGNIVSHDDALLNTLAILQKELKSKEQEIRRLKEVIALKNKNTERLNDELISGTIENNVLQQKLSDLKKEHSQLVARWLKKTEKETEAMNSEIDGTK

Atg12~Atg5-Atg16 complex = target: T8, Atg12~Atg5-Atg16 complex (S. cerevisiae, UniProt P38316 1-186; Q12380 1-294; Q03818 1-150, conjugated to Atg5 (Atg12~Atg5 protein conjugate) | conjugated to Atg12); experiment: pull-down; GST-fused bait 5 µM and GST-free prey 5 µM with glutathione Sepharose 4B, 1 hr at 4°C; washed with 25 mM HEPES pH 7.5, 150 mM NaCl, 1 mM DTT and 0.1% TritonX100; Western blot (Figures 1A, 1C, 2A, 2C)
T8 construct: Atg12, S. cerevisiae; Atg5, S. cerevisiae; Atg16, S. cerevisiae; conjugate made by co-expression with Atg7 and Atg10 (SMC131); details in Romanov et al., 2012; also called E3-like complex; source: E. coli Rosetta pLysS; Atg12~Atg5 conjugate mixed 1:1 with purified Atg16, purified by size exclusion chromatography; not shown: GST, N-terminal, cleaved; copies: + +
T8 sequence (looked up) 1: T1 sequence (looked up) 1
T8 sequence (looked up) 2: T1 sequence (looked up) 2
T8 sequence (looked up) 3: T7 sequence (looked up) 3

Atg12~Atg5 conjugate [6] = target: T1, Atg12~Atg5 conjugate; experiment: as above

- binding result (Atg12~Atg5 conjugate [1]): binds
- binding result [2]: binds
- binding result [3]: binds
- binding result [4]: binds
B1: Atg16-mCherry (natural protein, S. cerevisiae, UniProt Q03818 1-150, looked up)
chain: T7 sequence (looked up) 3
notes: Atg16, S. cerevisiae; also called 6xHis-Atg16-mCherry; source: E. coli Rosetta pLysS, purified (Ni-NTA, TEV, Superdex 200); not shown: His6, N-terminal, cleaved; mCherry, C-terminal, kept

- binding result (mCherry-Atg19): binds
- binding result (Atg19): binds
B2: GST-prApe1(1–45) (domain or fragment, S. cerevisiae, UniProt P14904 1-45, looked up)
chain: MEEQREILEQLKKTLQMLTVEPSKNNQIANEEKEKKENENSWCIL
notes: prApe1 (precursor aminopeptidase 1), S. cerevisiae, propeptide; also called prApe1 propeptide; cargo mimetic beads; source: E. coli Rosetta pLysS, purified; not shown: GST, N-terminal, kept

- binding result [5]: binds
- binding result (Atg12~Atg5-Atg16 complex): binds
- binding result (Atg12~Atg5 conjugate [6]): binds
B3: GST-Atg19 (natural protein, S. cerevisiae, UniProt P35193 1-415, looked up)
chain: T5 sequence (looked up)
notes: Atg19, S. cerevisiae cargo receptor; also called full length GST-Atg19; Atg19 full length; source: E. coli Rosetta pLysS, purified; not shown: GST, N-terminal, kept
